Source: patent publication US9383366B2, “Blue fluorescent protein and methods of use thereof” (WiSys Technology Foundation, Inc., priority 2013, dated 2016)

Tests used:
[1] = Spectral properties (absorption and fluorescence emission) of Sandercyanin protein; type: physicochemical
[2] = test system: hydra; experiment: Injection of Sandercyanin protein into hydra, fluorescence localization; type: in vivo; details: injected into hydra
From the text: We are currently imploring the localization of Sandercyanin in model organisms.

[3] = on excitation at 380 nm and 630 nm; cited from earlier work
[4] = band maximum used for Stokes shift

B1: Sandercyanin protein: native blue fluorescent bili-binding lipocalin protein from walleye mucus, SEQ ID NO: 1 (protein)
chain: QFIKPGRCPKPAVQEDFDAARYLGVWYDIQRLPNKFQKGECATATYSLSPGVGFSVFNRERLANGTIKSVIGSAIAEDPCEPAKLQFFHENAAPVPYWVLSTDYDNYALVYSCINLGASHAAYASIVSRQPTLPEETIKKLQGTMSSFGVGVDTLLTTNQDAAYCSAMNQ
modifications: Sandercyanin
- absorption [1, 4]: 375 nm
- emission [1, 4]: 675 nm
- Stokes shift ([1]; difference between absorption and emission band maxima): ~300 nm
- fluorescence after injection [2]: showed fluorescence on the surface of tentacles
- emission maxima [3]: 678 nm
